# Data from patent US6747136 (KAROLINA INNOVATIONS, dated 2004).
# B1: Fab molecule clone L3 (Fab, V domains shown)
# VH: EVQLLESGGGVVQPGRSLRLSCAASGFTFKTYGMHWVRQAPGKGLEWVAGISFDGSNQYYADSVKGRFIVSRDNSRDTVFLQMSSLRLEDTAVYYCATEGSPFGSIKGRYYLENWGQGTLVTVSS
# VL: AELTQSPATLSVSPGERASLSCRASQSVGNNLAWYQQKPGQAPRLLIYGGNTRATGTPDRFSGSGSGTEFTLTISSLQSEDFAVYFCQHYSTWPLTFGGGTKVEFK
# B2: Fab molecule clone 1:5 (Fab, V domains shown)
# VH: VQLLEQSGAEVRKPGSSVKVSCKASGGTFSGHVITWVRQAPGQGLEWMGESIPIFGSANYAQNYAQKFRDRVSIIADESTSTSFIELSNLRSDDTAVYYCARDPPRYCSAGRCYPGFFQQWGQGTLVTVSS
# VL: AELTQSPGTLSLSPGERATLSCRASQSVSSNYLAWYQQRPGQAPRLLIYGASSRATGIPDRFSGSGSGTDFTLTISRLEPEDFAVYYCQLYGNSRWTFGQGTKVEIK
# Columns and labels:
# tetanus toxoid [1] = biological target: T1, tetanus toxoid (UniProt P04958 2-1315); assay: ELISA, […] (100 ug/ml) […]
# T1 construct: also called TT
# tetanus toxoid [2] = biological target: T1, tetanus toxoid; assay: ELISA, coated tetanus toxoid 1 ug/ml
# T1 sequence (P04958 2-457 limits assumed, chain 1 of 2): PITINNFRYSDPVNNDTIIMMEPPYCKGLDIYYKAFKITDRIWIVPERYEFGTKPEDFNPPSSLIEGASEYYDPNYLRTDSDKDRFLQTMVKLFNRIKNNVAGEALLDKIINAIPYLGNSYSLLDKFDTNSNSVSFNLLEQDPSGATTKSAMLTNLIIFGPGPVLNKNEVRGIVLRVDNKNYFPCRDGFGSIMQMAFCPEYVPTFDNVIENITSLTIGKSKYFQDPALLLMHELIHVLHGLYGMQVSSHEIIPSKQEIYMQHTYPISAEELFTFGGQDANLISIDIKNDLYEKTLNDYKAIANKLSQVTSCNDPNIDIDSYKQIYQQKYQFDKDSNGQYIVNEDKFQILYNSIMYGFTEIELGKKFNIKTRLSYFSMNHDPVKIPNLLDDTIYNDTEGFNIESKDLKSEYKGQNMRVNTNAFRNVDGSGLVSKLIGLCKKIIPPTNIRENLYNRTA
# T1 sequence (P04958 458-1315 limits assumed, chain 2 of 2): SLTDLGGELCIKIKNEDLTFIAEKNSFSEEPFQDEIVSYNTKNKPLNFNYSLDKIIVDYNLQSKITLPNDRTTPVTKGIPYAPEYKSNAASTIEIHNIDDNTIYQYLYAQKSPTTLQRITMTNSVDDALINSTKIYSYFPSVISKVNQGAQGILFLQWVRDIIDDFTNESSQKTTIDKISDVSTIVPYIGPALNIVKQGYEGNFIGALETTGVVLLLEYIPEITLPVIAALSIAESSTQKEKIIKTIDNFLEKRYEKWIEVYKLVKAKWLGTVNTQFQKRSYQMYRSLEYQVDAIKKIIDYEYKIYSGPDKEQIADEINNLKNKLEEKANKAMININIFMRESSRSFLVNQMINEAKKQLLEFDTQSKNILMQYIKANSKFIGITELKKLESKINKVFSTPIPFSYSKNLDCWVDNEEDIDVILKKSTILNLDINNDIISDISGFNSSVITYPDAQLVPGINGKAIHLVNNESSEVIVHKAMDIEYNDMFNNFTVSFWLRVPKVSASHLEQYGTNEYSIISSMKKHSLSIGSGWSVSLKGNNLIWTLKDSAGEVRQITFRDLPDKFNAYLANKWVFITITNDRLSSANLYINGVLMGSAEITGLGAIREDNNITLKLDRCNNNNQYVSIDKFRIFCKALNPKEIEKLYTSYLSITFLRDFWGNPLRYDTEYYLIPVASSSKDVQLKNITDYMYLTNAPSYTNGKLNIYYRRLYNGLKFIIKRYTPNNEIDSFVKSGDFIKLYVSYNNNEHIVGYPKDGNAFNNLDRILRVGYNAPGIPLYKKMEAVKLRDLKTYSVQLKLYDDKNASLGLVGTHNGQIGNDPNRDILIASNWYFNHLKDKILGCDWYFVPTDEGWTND
Binder,OD405 nm (ELISA reactivity) (tetanus toxoid [1]) [OD405 nm],binding result (tetanus toxoid [2])
B1,0.313,no binding
B2,–,no binding
